Positions count from the first letter of the chain named.
B1: monoclonal antibody D10P4 (antibody, V domains shown)
VH: EVQLLESGGGLVQPGGSLRLSCVASGFSIRGYAMNWVRQAPGKGLEWVSSLTSNGATTYYADSVKGRFTISRDNSKNTLFLQMHSLRGEDTAVYYCAKDRDAEWLGSEPFDPWGQGTLVTVSS
VL: EIVLTQSPGTLSLSPGERATLSCRASQRVSSSYLAWYQHKFGQAPRLLIYGASRRATGIPDRFSGSGSGTDFTLTISRLEPEDFAVYYCQQYGSSPRSFGQGTKLEIK
B2: monoclonal antibody G5P4 (antibody, V domains shown)
VH: B1 VH with I29L, K43R, T58A, S75F, F80Y, K98R, L118M
VL: not shown
notes: Human mAb in human-IgG (heavy, kappa) expression plasmids, made in HEK293F
B3: monoclonal antibody E3P7 (antibody, V domains shown)
VH: EVQLLESGGGLVQPGGSLRLSCAASGFSFRSYAMNWVRQAPGKGLEWVSSLNSAGVSTYYAESVKGRFTISRDNSKNTLYLQMNSLRGEDTAVYYCAKDRGVEWLGSEPIDPWGQGTLVTVSS
VL: B1 VL with S32N, F41P, G51R, R54S
B4: monoclonal antibody D6P7 (antibody, V domains shown)
VH: B3 VH with S28N, A33G, N52R, A54S, S57T, E62D, G101D, V102A, I110F
VL: B1 VL with R28S, V29L, S31N, F41P, Q43L, G51D, R54S, G67E, S95P
notes: as for B2

Key:
[1] = biological target: T1, VP1 on entire replicative virions of BK virus genotype Ia (Dunlop strain; ATCC VR-837) (BK virus genotype Ia (Dunlop strain), UniProt P03088 1-362); experiment: cell-based or functional assay
T1 sequence: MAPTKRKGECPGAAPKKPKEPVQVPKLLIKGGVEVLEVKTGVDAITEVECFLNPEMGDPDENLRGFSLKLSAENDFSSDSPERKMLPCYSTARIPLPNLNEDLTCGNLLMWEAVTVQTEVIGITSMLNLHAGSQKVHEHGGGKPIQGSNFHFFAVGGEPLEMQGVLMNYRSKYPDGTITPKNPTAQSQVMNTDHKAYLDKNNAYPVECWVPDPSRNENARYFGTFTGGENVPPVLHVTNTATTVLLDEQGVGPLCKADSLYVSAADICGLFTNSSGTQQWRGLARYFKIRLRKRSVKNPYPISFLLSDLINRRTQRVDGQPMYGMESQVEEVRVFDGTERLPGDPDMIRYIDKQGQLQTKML

[2] = biological target: VP1 on entire replicative virions of BKV genotype II (patient's isolate) (BK virus genotype II); experiment: cell-based or functional assay
[3] = biological target: T2, VP1 pentamer of BKV genotype IV (BK virus genotype IV); experiment: BLI (OctetRED96e), biotinylated VP1 pentamer on streptavidin sensor, mAb 0 to 40 nM in solution
T2 construct: Obtained by gene synthesis and subcloned into pESPRIT002; also called VP1 pentamer from genotype IV

[4] = biological target: T3, VP1 on BKV genotype Ia pseudovirions (BK-D; JF894228) (BK virus genotype Ia (BK-D; JF894228), UniProt P03088 1-362); experiment: cell-based or functional assay
T3 sequence: T1 sequence

[5] = biological target: T4, VP1 on BKV genotype II pseudovirions (GBR-12; AB263920) (BK virus genotype II (GBR-12; AB263920), UniProt P14996 1-362); experiment: cell-based or functional assay
T4 chain: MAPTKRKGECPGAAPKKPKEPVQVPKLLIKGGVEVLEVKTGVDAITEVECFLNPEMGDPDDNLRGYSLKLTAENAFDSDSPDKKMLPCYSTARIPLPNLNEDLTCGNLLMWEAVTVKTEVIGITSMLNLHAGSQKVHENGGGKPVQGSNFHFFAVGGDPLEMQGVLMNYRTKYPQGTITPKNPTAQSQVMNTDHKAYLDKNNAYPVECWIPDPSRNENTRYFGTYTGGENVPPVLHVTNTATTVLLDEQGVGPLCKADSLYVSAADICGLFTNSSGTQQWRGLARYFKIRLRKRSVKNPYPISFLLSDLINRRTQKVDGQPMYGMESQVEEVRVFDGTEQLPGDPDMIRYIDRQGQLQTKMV

Row | Binder | IC50, neutralization of fully replicative BKV virions (MRC5 cells) [1] [ng/mL] | IC50, neutralization of fully replicative BKV virions (MRC5 cells) [2] [ng/mL] | Kd [3] [nM] | IC50, neutralization of BKV pseudovirions (luciferase, 293TT cells) [4] [ng/mL] | IC50, neutralization of BKV pseudovirions (luciferase, 293TT cells) [5] [ng/mL]
1 | B1 | 0.06 | 0.05 | – | – | –
2 | B2 | – | – | 136 | 0.2 | –
3 | B3 | 0.03 | 0.005 | – | – | –
4 | B4 | – | – | 32.1 | – | 0.2
